Experiments:
[1] = target: T1, Human CCR8 (C-C chemokine receptor type 8) expressed on CHO-S cells (human, UniProt P51685 1-355); assay: flow cytometry (PE-A), human CCR8-expressing CHO-S cells against parental CHO-S cells; antibody concentration not given
T1 construct: also called huCCR8; human CCR8-expressing CHO-S cells

[2] = target: T2, Human CCR4 expressed on CHO-S cells (human, UniProt P51679 1-360); assay: flow cytometry (PE-A), human CCR4-expressing CHO-S cells against parental CHO-S cells; antibody concentration not given
T2 construct: whole, on cells; also called CCR4-expressing CHO-S cells
T2 sequence (looked up): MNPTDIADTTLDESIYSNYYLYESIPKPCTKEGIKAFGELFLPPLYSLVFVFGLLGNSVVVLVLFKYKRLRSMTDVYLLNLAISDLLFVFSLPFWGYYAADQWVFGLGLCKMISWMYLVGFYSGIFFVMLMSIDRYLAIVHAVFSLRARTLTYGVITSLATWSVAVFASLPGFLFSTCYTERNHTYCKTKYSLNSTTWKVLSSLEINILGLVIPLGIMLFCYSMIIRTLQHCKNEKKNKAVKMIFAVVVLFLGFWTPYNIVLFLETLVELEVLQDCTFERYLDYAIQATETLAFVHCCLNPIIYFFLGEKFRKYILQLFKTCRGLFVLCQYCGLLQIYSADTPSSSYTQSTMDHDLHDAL

[3] = target: T3, CCR8-NT.MBP (CCR8 N-terminus peptide aa 1-35 fused with maltose binding protein); assay: ForteBio Octet, antibody captured on AHC biosensors
[4] = target: T1, Human CCR8 (C-C chemokine receptor type …); assay: flow cytometry on CHO cells expressing CCR8, EC50 column
Description: CCR8 binding was determined using flow cytometry according to the same methods used in Example 4, Briefly, antibodies were screened for specific binding to human CCR8 by flow cytometry using human CCR8-overexpressing and parental CHO—S cell line. Antibodies specifically binding to human CCR8 were also tested for binding to CCR4 by flow cytometry.

[5] = target: T3, CCR8-NT.MBP (CCR8 N-terminus peptide aa …); assay: ForteBio Octet, antibody captured on AHC biosensors, CCR8-NT.MBP as analyte

T1 sequence (P51685 whole entry): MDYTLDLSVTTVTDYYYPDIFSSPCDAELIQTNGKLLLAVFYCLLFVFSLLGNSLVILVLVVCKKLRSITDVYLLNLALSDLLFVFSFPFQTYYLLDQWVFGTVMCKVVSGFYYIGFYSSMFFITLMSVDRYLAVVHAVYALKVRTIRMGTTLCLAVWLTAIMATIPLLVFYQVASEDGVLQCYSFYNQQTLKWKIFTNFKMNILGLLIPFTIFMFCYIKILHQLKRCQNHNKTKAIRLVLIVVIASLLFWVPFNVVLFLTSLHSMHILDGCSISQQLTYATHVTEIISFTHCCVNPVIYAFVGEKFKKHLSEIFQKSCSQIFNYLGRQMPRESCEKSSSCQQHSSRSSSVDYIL

B1: 7-B16 (mouse hybridoma antibody) (antibody, mouse IgG1, kappa)
heavy: EVQLVESGGGLVQPKGSLKLSCAASGFTFNTYAMNWVRQAPGKGLEWVARIRSKSNNYATYYADSVKDRFTISRDDSQSMLYLQMNNLKTEDTAMYYCVRGLLRYRFFDVWGAGTTVTVSSAKTTPPSVYPLAPGSAAQTNSMVTLGCLVKGYFPEPVTVTWNSGSLSSGVHTFPAVLESDLYTLSSSVTVPSSPRPSETVTCNVAHPASSTKVDKKIVPRDCGCKPCICTVPEVSSVFIFPPKPKDVLTITLTPKVTCVVVDISKDDPEVQFSWFVDDVEVHTAQTQPREEQFNSTFRSVSELPIMHQDWLNGKEFKCRVNSAAFPAPIEKTISKTKGRPKAPQVYTIPPPKEQMAKDKVSLTCMITDFFPEDITVEWQWNGQPAENYKNTQPIMNTNGSYFVYSKLNVQKSNWEAGNTFTCSVLHEGLHNHHTEKSLSHSPG
light: DIVMTQAEPSVPVTPGESISISCRSSKSLLHSNGNTYLYWFLQRPGQSPQLLIYRMSNLASGVPDRFSGSGSGTAFTLRISRVEAEDVGVYYCMQHLEYPFTFGGGTKLEIKRADAAPTVSIFPPSSEQLTSGGASVVCFLNNFYPKDINVKWKIDGSERQNGVLNSWTDQDSKDSTYSMSSTLTLTKDEYERHNSYTCEATHKTSTSPIVKSFNRNEC
Question: Does B1 bind [1]?
Answer: Result: binds

Question: Does B1 bind [2]?
Answer: Result: no binding

B2: 7B16-H3.001 (CDR H3 swapped mutant of 7-B16) (antibody, V domains shown)
VH: EVQLVESGGGLVQPKGSLKLSCAASGFTFNTYAMNWVRQAPGKGLEWVARIRSKSNNYATYYADSVKDRFTISRDDSQSMLYLQMNNLKTEDTAMYYCTRYYYYYGMDVWGAGTTVTVSS
VL: DIVMTQAEPSVPVTPGESISISCRSSKSLLHSNGNTYLYWFLQRPGQSPQLLIYRMSNLASGVPDRFSGSGSGTAFTLRISRVEAEDVGVYYCMQHLEYPFTFGGGTKLEIKR
notes: also called CDR swapped variant H3
Question: Does B2 bind [3]?
Answer: Result: no binding (tested: 300 nM CCR8-NT.MBP)

Question: Does B2 bind [4]?
Answer: Result: no binding

Question: What about the “Octet Response (nm)” value [5] of the same binder?
Answer: The value was 0.0093 nm.

Source: patent US20260116987A1 (Gilead, published 2026)
